This passage reports abundance fitness results from the Human Domainome abundance scans (Beltran et al. 2025).

± gives the uncertainty stated by the source.

Sequences and labels used below:
B1: Gamma-crystallin C, residues 91 to 170; numbered along this chain, P07315 (parent)
chain: RLYEREDHKGLMMELSEDCPSIQDRFHLSEIRSLHVLEGCWVLYELPNYRGRQYLLRPQEYRRCQDWGAMDAKAGSLRRV

Variants of B1 are the subject of the data set. The experiment in a line: abundance fitness (aPCA) (normalised: wild type 0, dead -1); higher = more abundant; growth selection in yeast, the domain comes from the species named. Particulars: Homo sapiens.
Regarding D7L, the abundance fitness is -0.554 ± 0.078. With D7A, the abundance fitness is -0.248 ± 0.061. For the variant D7R, the abundance fitness is -0.505 ± 0.085. As to D7M, the abundance fitness was -0.241 ± 0.076. The result for D7Q reads -0.273 ± 0.14. Then D7E, with -0.03 ± 0.093; and D7H, with -0.221 ± 0.27; and D7Y, with -0.098 ± 0.16. The result for D7S reads -0.277 ± 0.064; that for D7F, -0.203 ± 0.17. Consider D7P, for which the abundance fitness was -0.846 ± 0.2. Regarding D7V, the abundance fitness was -0.936 ± 0.12. On to D7G, for which the abundance fitness is -0.186 ± 0.057. With D7K, the abundance fitness was -0.578 ± 0.15.

With D7C, the abundance fitness is -0.237 ± 0.099. As for D7T, the abundance fitness is -0.995 ± 0.26. The result for K9I reads -0.68 ± 0.17.

Take K9V: the abundance fitness is -0.402 ± 0.068. The result for K9R reads -0.132 ± 0.07; that for K9D, -0.254 ± 0.083; that for K9C, -0.103 ± 0.11. The result for K9S reads -0.241 ± 0.087; that for K9P, -0.728 ± 0.16; that for K9A, -0.129 ± 0.053. For the variant K9E, the abundance fitness amounted to 0.017 ± 0.073. Then K9Q, with 0.117 ± 0.11; and K9H, with -0.174 ± 0.11. The result for K9F reads -0.559 ± 0.25; that for K9G, -0.171 ± 0.047; that for K9M, 0.212 ± 0.12.

K9N: the abundance fitness was -0.085 ± 0.14. On to K9Y, for which the abundance fitness was -0.467 ± 0.24. Take K9T: the abundance fitness is -0.156 ± 0.096. The result for K9W reads -0.909 ± 0.36; that for M12N, -0.11 ± 0.15. The result for M12I reads -0.242 ± 0.11; that for M12D, -0.863 ± 0.17; that for M12K, -0.464 ± 0.18. The result for M12L reads -0.238 ± 0.045; that for M12T, -0.464 ± 0.15; that for M12V, -0.096 ± 0.052. As to M12Q, the abundance fitness was -0.636 ± 0.37.

As for M12W, the abundance fitness is -0.17 ± 0.1.

Regarding M12S, the abundance fitness was -0.172 ± 0.068.

Take M12H: the abundance fitness is -0.483 ± 0.12.

In the case of M12G, the abundance fitness was -0.286 ± 0.059. Then M12P, with -0.038 ± 0.1. Then M12R, with -0.32 ± 0.062.

Take M12F: the abundance fitness was -0.342 ± 0.088.

M12A: the abundance fitness was -0.127 ± 0.05. Then M12C, with -0.288 ± 0.11; and M12Y, with -0.063 ± 0.25. The result for M13Y reads -0.112 ± 0.15. Then M13F, with -0.253 ± 0.15. As for M13R, the abundance fitness is -0.261 ± 0.051. Then M13G, with -0.07 ± 0.052; and M13W, with -0.018 ± 0.074; and M13L, with -0.078 ± 0.065. The result for M13V reads -0.002 ± 0.071. Regarding M13C, the abundance fitness was -0.118 ± 0.12. The result for M13Q reads -0.22 ± 0.085. Then M13P, with -1 ± 0.49; and M13I, with -0.148 ± 0.091. Turning to M13H, the abundance fitness is -0.283 ± 0.11. The result for M13S reads -0.441 ± 0.074; that for M13A, -0.085 ± 0.056; that for M13D, -0.706 ± 0.22. Turning to M13N, the abundance fitness was -0.24 ± 0.1. The result for M13E reads -0.327 ± 0.14. Then Y3P, with -0.807 ± 0.38; and Y3Q, with -0.88 ± 0.35; and Y3W, with -0.324 ± 0.095.

In the case of Y3A, the abundance fitness is -0.771 ± 0.37. The result for Y3C reads -0.64 ± 0.41. The result for Y3G reads -0.955 ± 0.2; that for Y3V, -0.949 ± 0.18; that for Y3K, -0.948 ± 0.27. Then Y3R, with -0.846 ± 0.27. On to Y3L, for which the abundance fitness was -1.04 ± 0.49. Take Y3N: the abundance fitness is -0.633 ± 0.43. Then Y3H, with -0.598 ± 0.24; and Y3F, with -0.238 ± 0.21. For the variant R5M, the abundance fitness stood at 0.047 ± 0.13. The result for R5P reads -0.788 ± 0.32.

On to R5A, for which the abundance fitness was -0.309 ± 0.16.

Regarding R5L, the abundance fitness is -0.029 ± 0.084.

For the variant R5D, the abundance fitness was -0.175 ± 0.12.

For R5V, the abundance fitness is -0.429 ± 0.079. Then R5G, with -0.105 ± 0.063; and R5H, with 0.185 ± 0.15; and R5S, with -0.144 ± 0.14. Then R5T, with -0.747 ± 0.33. Take R5W: the abundance fitness was -0.203 ± 0.092. Then L2Y, with -0.936 ± 0.41.

For L2T, the abundance fitness is -0.622 ± 0.31. With L2M, the abundance fitness was -0.346 ± 0.042. On to L2G, for which the abundance fitness is -0.922 ± 0.2. Then L2C, with -0.777 ± 0.34; and L2V, with -0.714 ± 0.18; and L2W, with -0.847 ± 0.22. The result for L2A reads -0.494 ± 0.13; that for L2P, -1.13 ± 0.48. The result for H8Y reads 0.111 ± 0.1; that for E14K, -0.095 ± 0.15. Take E14D: the abundance fitness was -0.485 ± 0.097. For the variant E14C, the abundance fitness is -0.565 ± 0.21. Then E14I, with -0.265 ± 0.17; and E14G, with -0.524 ± 0.11.

Take E14V: the abundance fitness is -0.227 ± 0.086. Then E14S, with -0.25 ± 0.06.
